Data as given in article PMC314469, “Protein Interaction Networks by Proteome Peptide Scanning” (PLoS Biology, 2004).

T1: Boi1 SH3 (BOI1_YEAST), P38041
T1 chain: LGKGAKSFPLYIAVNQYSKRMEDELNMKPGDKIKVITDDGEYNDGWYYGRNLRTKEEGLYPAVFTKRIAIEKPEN

T2: Yhr016c SH3 (YSC84_YEAST), P32793
T2 chain: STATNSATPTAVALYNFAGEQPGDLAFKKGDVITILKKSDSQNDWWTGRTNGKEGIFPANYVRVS

T3: Boi2 SH3 (BOI2_YEAST), P39969
T3 chain: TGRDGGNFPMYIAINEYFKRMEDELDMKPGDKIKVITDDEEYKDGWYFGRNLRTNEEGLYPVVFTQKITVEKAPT

T4: Rvs167 SH3 (RV167_YEAST), P39743
T4 chain: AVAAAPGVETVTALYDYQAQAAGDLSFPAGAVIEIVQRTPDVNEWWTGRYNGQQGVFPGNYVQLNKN

T5: Yfr024 SH3 (LSB3_YEAST), P43603
T5 chain: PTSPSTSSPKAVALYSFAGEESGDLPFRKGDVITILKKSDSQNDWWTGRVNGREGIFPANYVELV


Assays:
Test in all cases: SPOT array
[1] = target: T1, Boi1 SH3 (BOI1_YEAST), P38041
[2] = target: T2, Yhr016c SH3 (YSC84_YEAST), P32793
[3] = target: T3, Boi2 SH3 (BOI2_YEAST), P39969
[4] = target: T4, Rvs167 SH3 (RV167_YEAST), P39743
[5] = target: T5, Yfr024 SH3 (LSB3_YEAST), P43603

Binder	normalised SPOT signal, Boehringer light units (BLU); mean over the file's lines of this peptide [1]	normalised SPOT signal, Boehringer light units (BLU); mean over the file's lines of this peptide [2]	normalised SPOT signal, Boehringer light units (BLU); mean over the file's lines of this peptide [3]	normalised SPOT signal, Boehringer light units (BLU); mean over the file's lines of this peptide [4]	normalised SPOT signal, Boehringer light units (BLU); mean over the file's lines of this peptide [5]
AGQPEIPLKSNNKS [YKL104C 225-238]	69.5	102	33.5	0	1260
AGSPIRPYKQRYLL [YGL073W 526-539]	744	180	352	343	1770
AGTPNVPTRRPILK [YIR003W 42-55]	4210	4390	26.9	448	24700
AIEPGVPSRYSDET [YDL246C 91-104]	63	153	22.8	35.9	151
AIPPPVPNRPGGTT [YLR144C 7-20]	10.1	6020	23.8	186	11200
AKQPKEPKKRTTRR [YBR089C-A 7-20]	196	78	105	130	854
AKSPLLPFKLLSDR [YCL073C 330-343]	84.8	229	46.2	45.1	4310
ALEPGIPDRFSPEM [YLR070C 92-105]	102	30.2	31.2	56.6	96.8
ALKPKTPSKAPRKR [YBR060C 65-78]	247	341	103	300	2060
ALRPTGPDRGDGFD [YNL139C 1465-1478]	132	179	8.2	59.8	145
ALRPTPPERGSFPL [YLL018C-A 11-24]	230	917	27.5	448	1960
ALVPFAPFKLLKDR [YHL047C 340-353]	16.7	123	40.5	136	121
AMNPESPTRDQIFL [YMR012W 411-424]	34.6	125	39.3	63	648
AMPPTLPHRDWKDY [YGL153W 84-97]	113	25500	39.4	2620	14600
AMTPFSPRKSHINN [YNL269W 98-111]	642	256	884	422	1860
ANLPNRPKRGEGIN [YMR047C 1035-1048]	145	1230	27.9	39.8	6370
APAPLDPFKTGGNN [YBL007C 849-862]	123	22.8	68.1	47.4	35.4
APLPPQPRKHDKTP [YBL105C 587-600]	217	372	57.8	52.6	1150
APTPPAPSRSEKLH [YBR108W 727-740]	152	448	16.8	49.2	4690
AQRPRGPQRGKDIK [YNL064C 104-117]	119	112	73.2	78.6	576
ARDPILPYRLVKDR [YHL040C 345-358]	322	4220	46.6	437	16800
ASKPSVPPRNYFSK [YIL108W 577-590]	1130	9380	44.5	3860	20100
